Test: soluble on expression in E. coli; label from the status in PepcDB or PDB records

Sequence | soluble on expression in E. coli
MGSSHHHHHHSSGLVPRGSHMFADVETTCCARRTLTTIDEVPGMADETALLDWLGTMREKQPVWQDRYGVWHVFRHADVQTVLRDTATFSSDPTRVIEGASPTPGMIHEIDPPEHRALRKVVSSAFTPRTISDLEPRIRDVTRSLLADAGESFDLVDVLAFPLPVTIVAELLGLPPMDHEQFGDWSGALVDIQMDDPTDPALAERIADVLNPLTAYLKARCAERRADPGDDLISRLVLAEVDGRALDDEEAANFSTALLLAGHITTTVLLGNIVRTLDEHPAHWDAAAEDPGRIPAIVEEVLRYRPPFPQMQRTTTKATEVAGVPIPADVMVNTWVLSANRDSDAHDDPDRFDPSRKSGGAAQLSFGHGVHFCLGAPLARLENRVALEEIIARFGRLTVDRDDERLRHFEQIVLGTRHLPVLAGSSPRQSA | soluble
MGSSHHHHHHSSGLVPRGSHMHVQAKFSNNLNIFEYSIVIRKIFYLGPPGSFSQEAAEIFGSDLVPVRSISEIFHKISVTGDYGIVPIENSIEGPVNETLDGLFRHEDIYIVDHVEIPIEIFLASNCDTENIRRIYSHPHAIAEAGDYLERTENIEVIRTSSTSEAAKLASMDEAGAALCSMKAAQHYGLANTVKIESKSRNITRFILIGRERNVEGSRHIILCVIPDRPGSLHSLIGVLASRGINMNMIYSRPLRDTIWKYYFYIEFSGKLDEDLLLTMGKQSLRILYKGSFKCCR | soluble
MGSSHHHHHHSSGLVPRGSHMKDTEDAFGHALMDYADGKCSYEMVETRNGKIDVTSISYYFRDHDQWPSMEREAIRYAKGRVVDVGAGAGRHSLYLQDQGFDVTALDISPLAVEVMKHRGVKNAKIASIDEVEPGWDTMILLGNNFGLMRTIDEAMAFLRRFYSESSDDARIIAETTDPLSAGFQSDKGYPGELEIRVIYREYRSEWFRYLLADRQKLREIIKDTGWKIDHFYDIADVDVYCFVLSK | soluble
MGSSHHHHHHSSGLVPRGSHMKLQFNLKAYFKTSADPTPAKDAIAALFEEANSTLLTRGAPEGQGAKVTEWKLGEDRIELTLQSGRYVRVHDAIFRLRKQLAEALGKKYKIGIRGIEVESFIIKVPADHELRMLKVPYIKSMENIEGGIQLELEVGEAEMKNRVPDRILTLLEEKIEAAQYGAKAEHWNLLWQREPMEHPFKEDPTQAMMKEGWLKRGSSRGQWIHGPQSARIFRTFEKIVLEELLEPLGYREMIFPKLVTWEVWMKSGHAKGVYPEIYYVCPPQTRDPDYWEEVADYYKVTHEVPTKLIKEKIAEPIGGMCYAQCPPFWMYVAGETLPNEEIPVKVFDRSGTSHRYESGGIHGIERVDEFHRIEIVWIGTKEEVLKCAEELHDRYMHIFNDILDIEWRKARVTPWFMAQEGLLGLAEENTVGTTDYEACLPYRGPDGEWLEFQNVSINGDKYPKGFNVKLQSGDELWSGCSGVGLERWAAVFLAQKGLDPANWPEEFRNRVGEMPKGIRFL | soluble
MGSSHHHHHHSSGLVPRGSHMLKQKELIANVKNLTESDERITACMMYGSFTKGEGDQYSDIEFYIFLKHSITSNFDSSNWLFDVAPYLMLYKNEYGTEVVIFDNLIRGEFHFLSEKDMNIIPSFKDSGYIPDTKAMLIYDETGQLENYLSEISGARPNRLTEENANFLLCNFSNLWLMGINVLKRGEYARSLELLSQLQKNTLQLIRMAEKNADNWLNMSKNLEKEISLENYKKFAKTTARLDKVELFEAYKNSLLLVMDLQSHLIEQYNLKVTHDILERLLNYISE | soluble
MGSSHHHHHHSSGLVPRGSHMNSILITGCNRGLGLGLVKALLNLPQPPQHLFTTCRNREQAKELEDLAKNHSNIHILEIDLRNFDAYDKLVADIEGVTKDQGLNVLFNNAGIAPKSARITAVRSQELLDTLQTNTVVPIMLAKACLPLLKKAAKANESQPMGVGRAAIINMSSILGSIQGNTDGGMYAYRTSKSALNAATKSLSVDLYPQRIMCVSLHPGWVKTDMGGSSAPLDVPTSTGQIVQTISKLGEKQNGGFVNYDGTPLAW | soluble
MGSSHHHHHHSSGLVPRGSHMSNQEAIGLIDSGVGGLTVLKEALKQLPNERLIYLGDTARCPYGPRPAEQVVQFTWEMADFLLKKRIKMLVIACNTATAVALEEIKAALPIPVVGVILPGARAAVKVTKNNKIGVIGTLGTIKSASYEIAIKSKAPAIEVTSLACPKFVPIVESNQYRSSVAKKIVAETLQALQLKGLDTLILGCTHYPLLRPVIQNVMGSHVTLIDSGAETVGEVSMLLDYFDIAHTPEAPTQPHEFYTTGSAKMFEEIASSWLGIENLKAQQIHLGGNEND | soluble
MGSSHHHHHHSSGLVPRGSHMYETYHSGWIECITGSMFSGKSEELIRRLRRGIYAKQKVVVFKPAIDDRYHKEKVVSHNGNAIEAINISKASEIMTHDLTNVDVIGIDEVQFFDDEIVSIVEKLSADGHRVIVAGLDMDFRGEPFEPMPKLMAVSEQVTKLQAVCAVCGSSSSRTQRLINGKPAKIDDPIILVGANESYEPRCRAHHIVAPSDNNKEEL | soluble
MGSSHHHHHHSSGLVPRGSMAELSEEALLSVLPTIRVPKAGDRVHKDECAFSFDTPESEGGLYICMNTFLGFGKQYVERHFNKTGQRVYLHLRRTRRPKEEDPATGTGDPPRKKPTRLAIGVEGGFDLSEEKFELDEDVKIVILPDYLEIARDGLGGLPDIVRDRVTSAVEALLSADSASRKQEVQAWDGEVRQVSKHAFSLKQLDNPARIPPCGWKCSKCDMRENLWLNLTDGSILCGRRYFDGSGGNNHAVEHYRETGYPLAVKLGTITPDGADVYSYDEDDMVLDPSLAEHLSHFGIDMLKMQKTDKTMTELEIDMNQRIGEWELIQESGVPLKPLFGPGYTGIRNLGNSCYLNSVVQVLFSIPDFQRKYVDKLEKIFQNAPTDPTQDFSTQVAKLGHGLLSGEYSKPVPESGDGERVPEQKEVQDGIAPRMFKALIGKGHPEFSTNRQQDAQEFFLHLINMVERNCRSSENPNEVFRFLVEEKIKCLATEKVKYTQRVDYIMQLPVPMDAALNKEELLEYEEKKRQAEEEKMALPELVRAQVPFSSCLEAYGAPEQVDDFWSTALQAKSVAVKTTRFASFPDYLVIQIKKFTFGLDWVPKKLDVSIEMPEELDISQLRGTGLQPGEEELPDIAPPLVTPDEPKAPMLDESVIIQLVEMGFPMDACRKAVYYTGNSGAEAAMNWVMSHMDDPDFANPLILPGSSGPGSTSAAADPPPEDCVTTIVSMGFSRDQALKALRATNNSLERAVDWIFSHIDDLDAEAAMDISEGRSAADSISESVPVGPKVRDGPGKYQLFAFISHMGTSTMCGHYVCHIKKEGRWVIYNDQKVCASEKPPKDLGYIYFYQRVAS | soluble
MGSSHHHHHHSSGLVPRGSTYKLTLIRHGESEWNKENRFTGWTDVSLSEQGVSEAIEAGRMLLEKGFKFDVVYTSVLKRAIMTTWTVLKELGNINCPIINHWRLNERHYGALQGLNKSETASKFGEDQVKIWRRSFDVPPPVLEKSDPRWPGNELIYKGICPSCLPTTECLKDTVERVKPYFEDVIAPSIMSGKSVLVSAHGNSLRALLYLLEGMTPEQILEVNIPTACPLVLELDDYLKVTKKYYLISEEELKAKMEAVANQGKAK | soluble
MGSSHHHHHHSSGRENLYFQGEYDYTDFINYYDKFKVIVYNVLKKLPLNDEIRKPVIEYYLNCIDYNVKKGKHIRGKILVLISSLSSAYSNIKRDSIYLLGWVVEAIQALILIADDIMDSGKFRRGAPCWYIVHGQSNAINDIFFLKMLSLSLIFELSSVFGNDIVMKIQKIYNESIFFTVLGQHLDLSYFDLSKADKISERYFSMVEMKTSRYTFYMPVFFGLTLSEIQVSSAQLNLIEAILYKLGEFYQVHNDVSDYLFNDSNADDICRFKLTWPLQKSFEIADEEMKLKISENYGKNSSLVKDCYNLLKINEHYLEYQRNALDYLIKLVKDITDDSLQKVFIHLIHQISELITNSRSNADSNNSL | soluble
MGSSHHHHHSSGENLYFQGHMKHGIYYSYWEHEWSAKFGPYIEKVAKLGFDIIEVAAHHINEYSDAELATIRKSAKDNGIILTAGIGPSKTKNLSSEDAAVRAAGKAFFERTLSNVAKLDIHTIGGALHSYWPIDYSQPVDKAGDYARGVEGINGIADFANDLGINLCIEVLNRFENHVLNTAAEGVAFVKDVGKNNVKVMLDTFHMNIEEDSFGDAIRTAGPLLGHFHTGESNRRVPGKGRMPWHEIGLALRDINYTGAVIMEPFVKTGGTIGSDIKVWRDLSGGADIAKMDEDARNALAFSRFVLGG | soluble
MGTETVSFKWEGKKVAQVNGVTAEKVWSVFSDFCNVQEWFPSVDTCYRVQGTDGVPGLIRYCSTTKTKEEGSRWAKEKLVKIDPIGRCLSYEILENNVGFRSYVATVQVTPVDGEDQVSRIEWSFVADPVDGWKKEDLESYVDFCLQHMANKMELNL | soluble
MGTHMYSEQGINNTINISTTSLTNATQLTVIGNNNSVYIGNNCKIVSSNIRLKGNNITLFIADDVEIMGLVCSLHSDCSLQIQAKTTMGNGEITIAEKGKISIGKDCMLAHGYEIRNTDMHPIYSLENGERINHGKDVIIGNHVWLGRNVTILKGVCIPNNVVVGSHTVLYKSFKEPNCVIAGSPAKIVKENIVWGRKMYHSTMYDDPTLNEFYK | soluble
MGTITGEFTEHSAEAIAAMLSYIVQTEYEKKQLAKDTLQKYEEVVFLSQFANAVATCTGLQELIEVIRAEIRQVISVDEIFLYLYDQSQDSLTPLLYKTEESLQNFKAIEKIVERVLKLNQVEVIDDIQNDQDYLNQPSKIRSLLCYSLTVQNSIIGVLGLAHYQVKHFDSSDLNLFSTLTGQVAAAIRTAQYYETIKNYSQTLEIRLEHHHHHH | not soluble
MGTSGCTVDTSRRDKVRMALPHAELEQARMDNLTRHVAQNFLREPQVVGEPNDSGVAVSQLLFEKSDTVVISDREIHHQLRAASIAVVAHAPMLLMDDTDRDAVQAEIGRLGARYILAIGDVGLPKTTGNVKVIPDSGSLTALGKLTSLQFRTQRIDVSNALSAVSRLDGTHPMWLLTNRQEKVQSSPSDGEVSAFPVQSRRDAGAAPQVIATQESGIAAVATARSYGASVTVMRFPDPRLNVESMRAVAGLSDQPLIALGSQFGTSQQLSERIELGERAPLALPHKTGLVFALRTLRARYLNDSDVSEHVDIPYGANYVRTIAHPLSSQDQQDWKAWADAINAQDGFVFIEIDAVHRDADEILDSVEEIVSQPSIGVILRNAAQVCARSPQSRQRIADRLMHWNSEVINHNGDQLGVVLEGVDILRGGVCGISPQELMGLGLAILPARGEHLGGDATVNSQLYWDDWFVAERESFQPTGTLRSPRLGLIIRD | not soluble
MGVANDSSPEYRWMSPHRLSDTVILGDCLYFNNIMSQLDLHQNWAPSVRLLNYFKNFNKETLLKIEENDYINSSFFQQKDKRFYPINDDFYHISTGGYGIVFKIDNYVVKFVFEATKLYSPMETTAEFTVPKFLYNNLKGDEKKLIVCAWAMGLNYKLTFLHTLYKRVLHMLLLLIQTMDGQELSLRYSSKVFLKAFNERKDSIKFVKLLSHFYPAVINSNINVINYFNRMFHFFEHEKRTNYEYERGNIIIFPLALYSADKVDTELAIKLGFKSLVQYIKFIFLQMSLLYIKIYELPCCDNFLHADLKPDNILLFDSNEPIIIHLKNKKFVFNERIKSALNDFDFSQVAGIINKKIKNNFKVEHNWYYDFHFFVHTLLKTYPEIEKDIEFSTALEEFIMCTKTDCDKYRLKVSILHPISFLEKFIMRDIFSDWINGGN | not soluble
MGVDNFSTTKKMFTWEVPGERVITLMTAGNLATTQALISLLEERSKTPSERSPSILERPTMFEVARLVGATLKEVIADTAGTGQVASSQFKASVIVGGQVKGGLPTLFLIYPEGNFIEVTEDSPFFQIGEAKYGKPILVRAYDPDLSFEDTIRLLMVSFDSTIKANLSVGLPLDLQVYANDSFAIKEQSRVEADDAYFQSISERWGDALRKALSDLPPYKSLLEHHHHHH | not soluble

— the DeepSol protein solubility set
